In paper PMC7790537:

Assays:
[1] = molecular target: recombinant trimeric HA of A/New Caledonia/20/1999 (H1N1) (influenza A virus A/New Caledonia/20/1999 (H1N1)) (UniProt Q6WG00)
[2] = molecular target: recombinant trimeric HA of A/Victoria/210/2009 (H3N2) (influenza A virus A/Victoria/210/2009 (H3N2))

Fab-deficient (ΔFab) IgA1 polymer (from UniProt P01591 23-159) (complex)
> 500 µg/mL: HI activity, minimum HI concentration, NC20 virus [1] | HI activity, minimum HI concentration, Vic210 virus [2] | NT activity, minimum virus-neutralizing concentration, Vic210 virus [2]

Fab-deficient (ΔFab) IgA2m2 polymer (from UniProt P01591 23-159) (complex)
> 500 µg/mL: HI activity, minimum HI concentration, NC20 virus [1] | HI activity, minimum HI concentration, Vic210 virus [2] | NT activity, minimum virus-neutralizing concentration, Vic210 virus [2]
